Data taken from patent US20110271358A1 (Dana-Farber, published 2011).
Numbering of substitutions follows the chain as printed.

T1: human Fc-PD-L2 (R&D systems) (human, UniProt Q9BQ51 20-219)
T1 construct: Bought Fc fusion coated on the ELISA plate; also called human PD-L2; not shown: Fc part of the bought fusion protein
T1 sequence: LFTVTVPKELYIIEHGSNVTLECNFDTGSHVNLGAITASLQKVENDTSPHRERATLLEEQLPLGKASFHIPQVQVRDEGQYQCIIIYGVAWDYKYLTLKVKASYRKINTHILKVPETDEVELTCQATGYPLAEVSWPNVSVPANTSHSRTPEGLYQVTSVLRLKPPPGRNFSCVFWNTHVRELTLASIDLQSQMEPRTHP

B1: EH12.2H7 composite, human antibody VH4/VK3 (antibody, V domains shown)
VH: QVQLVQSGHEVKQPGASVKMSCKASGYSFTSSWIHWVRQAPGQGLEWIGYIYPSTGFTEYNQKFKDRATLTADKSTSTAYMELSSLRSEDTAVYYCARWRDSSGYHAMDYWGQGTLVTVSS
VL: EIVLTQSPATLSLSPGQRLTISCRASQSVSTSGYSYMHWYQQKPDQSPKLLIKFGSNLESGIPARFSGSGSGTDFTLTISSLEPEDFATYYCQHSWEIPYTFGQGTKLEIK
notes: V regions cloned into vectors containing human constant regions (quantified against an IgG1/kappa standard; isotype not expressly stated)
B2: 29E.2A3 composite, human antibody VH2/VK2 (antibody, V domains shown)
VH: EVQLVQSGAEVKKPGASVKMSCKASGYTFTSYVMHWVKQAPGQRLEWIGYVNPFNDGTKYNEMFKGRATLTSDKSTSTAYMELSSLRSEDTAVYYCARQAWGYPWGQGTLVTVSS
VL: DIVLTQSPATLSLSPGERATLSCRATESVEYYGTSLVQWYQQKPGQPPKLLIYAASSVDSGVPSRFSGSGSGTDFTLTINSLEAEDAAMYFCQQSRRVPYTFGQGTKLEIK
notes: as for B1
B3: 29E.2A3 composite, human antibody VH4/VK2 (antibody, V domains shown)
VH: B2 VH with M20V, K38R
VL: B2 VL
notes: as for B1
B4: 24F.10C12 composite, human antibody VH2/VK2 (antibody, V domains shown)
VH: QVQLVQSGAEVKKPGASVKMSCKASGYTFTGYTMHWVKQAPGQGLEWIGYINPRSGYTEYNQKFKDRTTLTADKSTSTAYMELSSLRSEDTAVYYCARPWFAYWGQGTLVTVSS
VL: DIVMTQSPASLSVTPGEKVTITCKSSQSLLNSGNQKNYLTWYQQKPGQPPKLLIYWASTRESGVPDRFTGSGSGTDFTLTISSLQAEDVAVYYCQNDYSYPLTFGQGTKLEIK
notes: as for B1
B5: 24F.10C12 composite, human antibody VH2/VK3 (antibody, V domains shown)
VH: B4 VH
VL: B4 VL with S10F
notes: as for B1
B6: 24F.10C12 composite, human antibody VH4/VK2 (antibody, V domains shown)
VH: B4 VH with M20V, K38R
VL: B4 VL
notes: as for B1
B7: 24F.10C12 composite, human antibody VH4/VK4 (antibody, V domains shown)
VH: B4 VH with M20V, K38R
VL: B4 VL with S10F, T69S
notes: as for B1
B8: EH12.2H7 composite, human antibody VH3/VK3 (antibody, V domains shown)
VH: B1 VH with R38K
VL: B1 VL
notes: as for B1
B9: EH12.2H7 composite, human antibody VH4/VK4 (antibody, V domains shown)
VH: B1 VH
VL: B1 VL with E1D, T89V
notes: as for B1
B10: EH12.2H7 composite, human antibody VH3/VK4 (antibody, V domains shown)
VH: B1 VH with R38K
VL: B1 VL with E1D, T89V
notes: as for B1
B11: mouse anti-human PD-1 antibody EH12.2H7 (antibody, V domains shown)
VH: QVQLQQSGAELAKPGASVQMSCKASGYSFTSSWIHWVKQRPGQGLEWIGYIYPSTGFTEYNQKFKDKATLTADKSSSTAYMQLSSLTSEDSAVYYCARWRDSSGYHAMDYWGQGTSVTVSS
VL: DIVLTQSPASLTVSLGQRATISCRASQSVSTSGYSYMHWYQQKPGQPPKLLIKFGSNLESGIPARFSGSGSGTDFTLNIHPVEEEDTATYYCQHSWEIPYTFGGGTKLEIK
notes: Mouse monoclonal antibody; also called Biotin-EH12.2H7
B12: mouse anti-human PD-L1 antibody 29E.2A3 (antibody, V domains shown)
VH: EVQLQQSGPELVKPGASVKMSCKASGYTFTSYVMHWVKQKPGQGLEWIGYVNPFNDGTKYNEMFKGKATLTSDKSSSTAYMELSSLTSEDSAVYYCARQAWGYPWGQGTLVTVSA
VL: DIVLTQSPASLAVSLGQRATISCRATESVEYYGTSLVQWYQQKPGQPPKLLIYAASSVDSGVPARFSGSGSGTDFSLTIHPVEEDDIAMYFCQQSRRVPYTFGGGTKLEIK
notes: Mouse monoclonal antibody; also called Biotin-29E.2A3
B13: 29E.2A3 composite, human antibody VH2/VK1 (antibody, V domains shown)
VH: B2 VH
VL: B2 VL with T10S, S12A, A84E
notes: as for B1
B14: mouse anti-human PD-L2 antibody 24F.10C12 (antibody, V domains shown)
VH: QVQLQQSAAELARPGASVKMSCKASGYTFTGYTMHWVKQRPGQGLEWIGYINPRSGYTEYNQKFKDKTTLTADKSSSTAYMQLSSLTSEDSAVYYCARPWFAYWGQGTLVTVSA
VL: B4 VL with A9S, S12T, P15A, I21M, T22S, L84V, V89L, Q106A, I112L
notes: Mouse monoclonal antibody; also called Biotin-24F.10C12

These binders were tested against T2, human Fc-PD-1 (R&D systems) (human, UniProt Q15116 25-167) (assay: competition ELISA on coated human Fc-PD-1; IC50 against mouse EH12.2H7).
T2 construct: Bought Fc fusion coated on the ELISA plate; also called human PD-1; not shown: Fc part of the bought fusion protein
T2 sequence (Q15116 25-167 limits assumed): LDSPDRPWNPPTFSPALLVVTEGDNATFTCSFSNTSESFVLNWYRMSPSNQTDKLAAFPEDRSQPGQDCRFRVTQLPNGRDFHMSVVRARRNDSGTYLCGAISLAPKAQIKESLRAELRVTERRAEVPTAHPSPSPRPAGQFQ

fold increase in binding compared to the mouse reference [fold]	Binder
2	B1

Each binder was assayed against T3, human Fc-PD-L1 (R&D systems) (human, UniProt Q9NZQ7 19-239) (assay: competition ELISA on coated human Fc-PD-L1; IC50 against mouse 29E.2A3).
T3 construct: Bought Fc fusion coated on the ELISA plate; also called human PD-L1; not shown: Fc part of the bought fusion protein
T3 sequence (Q9NZQ7 19-239 limits assumed): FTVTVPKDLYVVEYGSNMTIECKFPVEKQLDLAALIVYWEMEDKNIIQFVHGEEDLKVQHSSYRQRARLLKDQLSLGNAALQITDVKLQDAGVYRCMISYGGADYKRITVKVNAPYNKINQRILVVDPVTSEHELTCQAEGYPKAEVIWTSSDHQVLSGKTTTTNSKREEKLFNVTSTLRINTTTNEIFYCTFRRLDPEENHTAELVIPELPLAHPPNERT

fold reduced binding compared to the mouse reference [fold]	Binder
1.75	B2
1.36	B3

These binders were tested against T1, human Fc-PD-L2 (R&D systems) (assay: competition ELISA on coated human Fc-PD-L2; IC50 against mouse 24F.10C12).

fold reduced binding compared to the mouse reference [fold]	Binder
1.13	B4
1.13	B5
1.13	B6
1.13	B7

What follows are binders tested against T2, human Fc-PD-1 (R&D systems) (assay: competition ELISA on coated human Fc-PD-1; competitor biotinylated EH12.2H7).

IC50 [µg/mL]	Binder
0.93	B8
0.91	B9
0.57	B1
0.74	B10
1.23	B11

Each binder was assayed against T3, human Fc-PD-L1 (R&D systems) (assay: competition ELISA on coated human Fc-PD-L1; competitor biotinylated 29E.2A3).

IC50 [µg/mL]	Binder
0.28	B12
0.49	B2
0.38	B3
0.27	B13

Each binder was assayed against T1, human Fc-PD-L2 (R&D systems) (assay: competition ELISA on coated human Fc-PD-L2; competitor biotinylated 24F.10C12).

IC50 [µg/mL]	Binder
0.52	B14
0.58	B4
0.59	B5
0.6	B6
0.58	B7
